Assay results published in patent US20150030596A1 (SAMSUNG ELECTRONICS, published 2015).

B1: bispecific chimeric protein ME-19 (L3-1Y-IgG2 heavy chain-(G4S)2-anti-EGFR DARPin-01) (bispecific antibody)
heavy: EVQLVESGGGLVQPGGSLRLSCAASGFTFTDYYMSWVRQAPGKGLEWLGFIRNKANGYTTEYSASVKGRFTISRDNSKNTLYLQMNSLRAEDTAVYYCARDNWFAYWGQGTLVTVSSASTKGPSVFPLAPCSRSTSESTAALGCLVKDYFPEPVTVSWNSGALTSGVHTFPAVLQSSGLYSLSSVVTVPSSNFGTQTYTCNVDHKPSNTKVDKTVERKCCVECPPCPAPPVAGPSVFLFPPKPKDTLMISRTPEVTCVVVDVSHEDPEVQFNWYVDGVEVHNAKTKPREEQFNSTFRVVSVLTVVHQDWLNGKEYKCKVSNKGLPAPIEKTISKTKGQPREPQVYTLPPSREEMTKNQVSLTCLVKGFYPSDIAVEWESNGQPENNYKTTPPMLDSDGSFFLYSKLTVDKSRWQQGNVFSCSVMHEALHNHYTQKSLSLSPGKGGGGSGGGGSDLGKKLLEAARAGQDDEVRILMANGADVNADDTWGWTPLHLAAYQGHLEIVEVLLKNGADVNAYDYIGWTPLHLAADGHLEIVEVLLKNGADVNASDYIGDTPLHLAAHNGHLEIVEVLLKHGADVNAQDKFGKTAFDISIDNGNEDLAEILQ
light: DIQMTQSPSSLSASVGDRVTITCKSSQSLLASGNQNNYLAWYQQKPGKAPKMLIIWASTRVSGVPSRFSGSGSGTDFTLTISSLQPEDFATYYCQQSYSRPYTFGQGTKVEIKRTVAAPSVFIFPPSDEQLKSGTASVVCLLNNFYPREAKVQWKVDNALQSGNSQESVTEQDSKDSTYSLSSTLTLSKADYEKHKVYACEVTHQGLSSPVTKSFNRGEC
notes: The DARPin is fused to the C-terminus of each heavy chain; also called anti-c-Met/anti-EGFR DARPin bispecific chimeric protein
B2: bispecific chimeric protein ME-28 (L3-1Y-IgG2 heavy chain-(G4S)2-anti-EGFR DARPin-01-(G4S)2-anti-EGFR DARPin-69) (bispecific antibody)
heavy: EVQLVESGGGLVQPGGSLRLSCAASGFTFTDYYMSWVRQAPGKGLEWLGFIRNKANGYTTEYSASVKGRFTISRDNSKNTLYLQMNSLRAEDTAVYYCARDNWFAYWGQGTLVTVSSASTKGPSVFPLAPCSRSTSESTAALGCLVKDYFPEPVTVSWNSGALTSGVHTFPAVLQSSGLYSLSSVVTVPSSNFGTQTYTCNVDHKPSNTKVDKTVERKCCVECPPCPAPPVAGPSVFLFPPKPKDTLMISRTPEVTCVVVDVSHEDPEVQFNWYVDGVEVHNAKTKPREEQFNSTFRVVSVLTVVHQDWLNGKEYKCKVSNKGLPAPIEKTISKTKGQPREPQVYTLPPSREEMTKNQVSLTCLVKGFYPSDIAVEWESNGQPENNYKTTPPMLDSDGSFFLYSKLTVDKSRWQQGNVFSCSVMHEALHNHYTQKSLSLSPGKGGGGSGGGGSDLGKKLLEAARAGQDDEVRILMANGADVNADDTWGWTPLHLAAYQGHLEIVEVLLKNGADVNAYDYIGWTPLHLAADGHLEIVEVLLKNGADVNASDYIGDTPLHLAAHNGHLEIVEVLLKHGADVNAQDKFGKTAFDISIDNGNEDLAEILQGGGGSGGGGSDLGKKLLEAARAGQDDEVRILMANGADVNADDNAGRTPLHLAANFGHLEIVEVLLKNGADVNAKGHHCNTPLHLAAWAGHLEIVEVLLKYGADVNADDDEGYTPLHLAADIGDLEIVEVLLKYGADVNAWDMYGRTPLHLAASAGHLEIVEVLLKYGADVNAQDKFGKTAFDISIDNGNEDLAEILQ
light: B1 light
notes: Two DARPins are linked in tandem to each heavy chain C-terminus of the IgG; also called anti-c-Met/anti-EGFR (E01+E69) DARPins bispecific chimeric protein

Experiments:
[1] = biological target: T1, EGFR-Fc (#344-ER, R&D Systems) (UniProt P00533 25-645); assay: SPR (Biacore T100); ME-19 captured on human Fab binder on a CM5 chip, EGFR-Fc as analyte
T1 construct: Bought reagent; also called EGFR (R&D systems); EGFR (#344-ER, R&D Systems); not shown: Fc part of the bought fusion protein; not described
Description: Human Fab binder (GE Healthcare) was immobilized on the surface of CM5 chip (#BR-1005-30, GE) according to the manufacturer's manual. […] 10 mM Glycine-HCl (pH 1.5) solution was added hereto, to regenerate the surface. To determine the affinity, the obtained data were fitted using BIA evaluation software (GE Healthcare, Biacore T100 evaluation software).

[2] = biological target: T1, EGFR-Fc (#344-ER, R&D Systems); assay: competitive ELISA: plate coated with EGFR (#344-ER, 0.25 ug/well), 20 ng/ml biotinylated EGF mixed with serially diluted ME-19, streptavidin/HRP detection, OD405
Description: 96-well immunoplate (Nunc) was coated with EGFR (#344-ER, R&D Systems) in the amount of 0.25 μg/well. […] The resulted reacting product was washed with PBS containing 0.05% (w/v) of Tween 20. HRP (Horse radish peroxidase) conjugated […] (#21140, Thermo scientific) was added to the each well and reacted at room temperature for 1 hour.

[3] = biological target: T1, EGFR-Fc (#344-ER, R&D Systems); assay: SPR (Biacore T100); ME-28 captured on human Fab binder on a CM5 chip, EGFR-Fc as analyte
Description: The binding affinity of bispecific chimeric protein ME-28 to EGFR was examined using Biacore T100 (GE). Human Fab binder (GE Healthcare) was immobilized on the surface of CM5 chip (#BR-1005-30, GE) according to the manufacturer's manual. About 90˜120 RU of the bispecific chimeric protein ME-28 was captured, and various concentrations of EGFR-Fc (#344-ER, R&D Systems) were added to the captured bispecific chimeric protein. 10 mM Glycine-HCl (pH 1.5) solution was added hereto, to regenerate the surface. To determine the affinity, the obtained data were fitted using BIA evaluation software (GE Healthcare, Biacore T100 evaluation software).

Binder | Kd [1] | koff [1] | kon [1] | IC50 (read off the curve) [2] | Kd [3] | koff [3] | kon [3]
B1 | 0.35 nM | 6.4e-05 s⁻¹ | 180000 M⁻¹ s⁻¹ | ~0.5 µg/mL | – | – | –
B2 | – | – | – | – | < 0.01 nM | < 3.4e-05 s⁻¹ | 110000 M⁻¹ s⁻¹
